Reference: EP4713368A1 (dated 2026)
Each block holds one binder with its values, some of them ahead of it.

Legend:
[1] = molecular target: T1, human CD28 (human, UniProt P10747 19-152, limits assumed); test: selection from yeast-presented heavy chain-only libraries (HCAb format)
T1 construct: also called Cluster of Differentiation 28; Tp44

[2] = molecular target: T1, human CD28; test: selection from yeast-presented libraries of heavy chains and CD3-binding light chains

binding result [1]: binds
B1: Ab No. 78 (antibody, V domains shown)
VH: EVQLLESGGGLVQPGGSLRLSCAASGFTFDTYSMNWFRQAPGKERELVSAISGVGSTYYADSVKGRFTISRDNSKNTLYLQMNSLRAEDTAVYYCHARGFRLGYDFDYYWGQGTQVTVSS
notes: HCAb format (dimer of VH-hinge-CH2-CH3, no VL, CL or CH1)

binding result [2]: binds
B2: Ab No. 68 (antibody, V domains shown)
VH: EVQLVESGGGLVQPGGSLRLSCAASGFTFQSYAMNWVRQAPGKGLEWVSYISDDASTIYYADSVKGRFTISRDNAKNSLYLQMNSLRAEDTAVYYCAREVHRGWGAFDIWGQGTMVTVSS
VL: DIVMTQSPDSLAVSLGERATINCKSSQSLLNARTGKNYLAWYQQKPGQPPKLLIYWASTRESGVPDRFSGSGSGTDFTLTISSLQAEDVAVYYCKQSYSLRTFGGGTKVEIK
notes: IgG format

binding result [1]: binds
B3: Ab No. 70 (antibody, V domains shown)
VH: EVQLLESGGGLVQPGGSLRLSCAASGFTFSDYAMSWVRQAPGKERELVSIISASGGTTYYAGSVKGRFTISRDNSKNTLYLQMNSLRAEDTAVYYCAAHASGSYYLDASRDYDADYWGQGTQVTVSS
notes: as for B1

binding result [1]: binds
B4: Ab No. 83 (antibody, V domains shown)
VH: EVQLLESGGGLVQPGGSLRLSCAASGFTFSDHSMNWYRQAPGKERELVSAISGSGGSTYYADSVKGRFTISRDNSKNTLYLQMNSLRAEDTAVYYCNARRYQSSGGDVWGQGTQVTVSS
notes: as for B1
